For the assay, the target named is T1, FL-RING1A (1–406aa), recombinant (human, UniProt Q06587 1-406).
T1 construct: Human RING1A, full length, residues 1-406; Subcloned into the bacterial expression 1GFP vector (Addgene #29663, the vector's id); purification as in Hambarde et al., 2021 with other buffers; also called RING1A-FL; Human FL-RING1A; source: bacterial expression vector, purified (HisTrap, TEV cleavage, Superdex 75)
T1 sequence (looked up): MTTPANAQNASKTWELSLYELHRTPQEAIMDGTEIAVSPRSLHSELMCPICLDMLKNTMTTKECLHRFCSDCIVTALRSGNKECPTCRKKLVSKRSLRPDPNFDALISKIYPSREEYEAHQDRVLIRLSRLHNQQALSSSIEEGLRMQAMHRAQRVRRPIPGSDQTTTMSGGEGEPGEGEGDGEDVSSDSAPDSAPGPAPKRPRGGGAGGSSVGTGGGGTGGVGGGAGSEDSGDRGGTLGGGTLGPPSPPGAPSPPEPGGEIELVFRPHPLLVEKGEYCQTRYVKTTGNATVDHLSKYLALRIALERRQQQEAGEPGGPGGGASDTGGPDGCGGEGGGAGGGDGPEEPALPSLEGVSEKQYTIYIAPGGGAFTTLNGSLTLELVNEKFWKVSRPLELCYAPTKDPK
Kind of assay: pull-down; FL-RING1A incubated with His6-CSD HP1β at molar ratio 1:2 in buffer H (20 mM Tris pH 8, 70 mM NaCl, 5% glycerol, 5 mM BME, 100 µM ZnCl2) on ice for 20 min; Ni-NTA resin, elution with 300 mM imidazole; SDS-PAGE and western blot. As to conditions: both partners purified. (In western blotting, separated proteins are transferred to a membrane and probed.)

B1: His6-CSD HP1β (80–185aa), recombinant (domain or fragment)
chain: not shown
notes: HP1β residues 80-185 (hinge part and chromo shadow domain); 'Human' is printed before the two constructs of the sentence; Subcloned into the bacterial expression 1B vector (Addgene #29653, the vector's id); source: bacterial expression vector, purified (HisTrap, Superdex 75)
Take B1: the binding result was “binds”.

For the origin of these results see article doi:10.1101/2022.01.11.475809, “HP1β Chromo Shadow Domain facilitates H2A ubiquitination for BRCA1 recruitment at DNA double-strand breaks” (bioRxiv, 2022).
